Experimental data from US20180055768.

Test system: HA-tagged wt ARRDC1

Sequence of GFP-tagged WWP2 (chain, as listed by the source): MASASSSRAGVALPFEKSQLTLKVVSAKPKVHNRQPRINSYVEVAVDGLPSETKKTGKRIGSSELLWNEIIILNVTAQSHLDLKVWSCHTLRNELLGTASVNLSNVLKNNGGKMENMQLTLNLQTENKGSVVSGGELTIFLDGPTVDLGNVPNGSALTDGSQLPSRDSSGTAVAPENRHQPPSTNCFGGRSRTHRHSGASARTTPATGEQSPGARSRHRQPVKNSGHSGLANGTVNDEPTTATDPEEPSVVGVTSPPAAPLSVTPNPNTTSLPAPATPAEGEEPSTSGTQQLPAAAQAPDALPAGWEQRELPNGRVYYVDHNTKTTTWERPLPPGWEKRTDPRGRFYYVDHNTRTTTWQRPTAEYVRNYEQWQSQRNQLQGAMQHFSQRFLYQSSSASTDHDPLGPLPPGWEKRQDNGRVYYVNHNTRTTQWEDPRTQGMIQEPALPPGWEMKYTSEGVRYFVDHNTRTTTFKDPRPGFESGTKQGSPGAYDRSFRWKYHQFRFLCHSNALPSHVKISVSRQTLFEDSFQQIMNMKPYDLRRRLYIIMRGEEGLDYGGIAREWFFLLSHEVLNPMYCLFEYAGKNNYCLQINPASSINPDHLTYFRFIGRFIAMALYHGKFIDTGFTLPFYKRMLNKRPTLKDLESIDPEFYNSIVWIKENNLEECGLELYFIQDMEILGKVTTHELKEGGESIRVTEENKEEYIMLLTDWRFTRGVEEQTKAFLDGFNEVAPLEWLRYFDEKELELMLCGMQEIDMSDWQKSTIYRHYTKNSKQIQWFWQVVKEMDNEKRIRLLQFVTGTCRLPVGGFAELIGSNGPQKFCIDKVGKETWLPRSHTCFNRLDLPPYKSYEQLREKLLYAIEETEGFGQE

## GFP-tagged WWP2
  ubiquitination of ARRDC1 (immunoblot of WCEs and ARMMs): ubiquitination of ARRDC1 was enhanced by WWP2
